T1: His6-tagged Arabidopsis thaliana chalcone synthase (AtCHS) (Arabidopsis thaliana, UniProt P13114 1-395)
T1 construct: also called TT4; source: E. coli BL21 (pCold I), purified; not shown: His6, N-terminal, kept
T1 sequence (looked up): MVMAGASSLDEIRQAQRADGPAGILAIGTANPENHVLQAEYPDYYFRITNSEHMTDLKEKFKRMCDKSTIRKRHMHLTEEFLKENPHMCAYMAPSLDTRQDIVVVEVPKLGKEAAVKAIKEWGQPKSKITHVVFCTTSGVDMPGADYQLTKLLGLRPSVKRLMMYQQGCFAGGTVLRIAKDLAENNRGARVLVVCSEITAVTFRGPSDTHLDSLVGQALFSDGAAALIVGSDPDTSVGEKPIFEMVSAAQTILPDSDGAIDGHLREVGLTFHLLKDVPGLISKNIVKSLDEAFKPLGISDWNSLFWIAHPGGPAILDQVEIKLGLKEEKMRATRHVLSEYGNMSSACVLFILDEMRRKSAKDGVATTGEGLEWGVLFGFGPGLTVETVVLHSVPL


Key:
[1] = target: T1, His6-tagged Arabidopsis thaliana …; assay: BLI; BLItz; His6-tagged CHS immobilised on anti-His6 sensors, GST-tagged CHIL loaded (30-150 s), wash (150-270 s); 100 mM HEPES-NaOH, pH 7.5; 1:1 binding model; apparent KD; settings: both partners purified
[2] = target: T2, glutathione S-transferase-tagged CHIL of morning glory (Ipomoea nil (morning glory)); assay: BLI; BLItz; His6-tagged CHS immobilised on anti-His6 sensors, GST-tagged CHIL loaded; 100 mM HEPES-NaOH pH 7.5; 1:1 binding model; apparent KD; settings: both partners purified
T2 construct: the purification of the GST fusions is not described; also called InCHIL; EFP; source: E. coli (pGEX4T-1)

Row | Binder | Kd [1] | koff [1] | kon [1] | Kd [2]
1 | glutathione S-transferase-tagged Arabidopsis thaliana chalcone isomerase-like protein (AtCHIL) (natural protein, chalcone isomerase-like protein AtCHIL, Arabidopsis thaliana; source: E. coli (pGEX4T-1)) MVMVHEVPFPPQIITSKPLSLLGQGITDIEIHFLQVKFTAIGVYLDPSDVKTHLDNWKGKTGKELAGDDDFFDALASAEMEKVIRVVVIKEIKGAQYGVQLENTVRDRLAEEDKYEEEEETELEKVVGFFQSKYFKANSVITYHFSAKDGICEIGFETEGKEEEKLKVENANVVGMMQRWYLSGSRGVSPSTIVSIADSISAVLT | 9.15 nM | 0.00137 s⁻¹ | 150000 M⁻¹ s⁻¹ | 
2 | His6-tagged CHS of morning glory (enzyme) MVTVEEVRKAQRAEGPATILAIGTATPANCVDQSTYPDYYFRITNSDHMTDLKQKFQRMCDKSMITKRYMHLTEEILKENPSFCEYMAPSLDARQDIVVVEVPKLGKEAAQSAIKEWGQPKSKITHVIFCTTSGVDMPGADYQLTKLLGLRPSVKRLMMYQQGCFAGGTVLRVAKDLAENNKAARVLVVCSEITVVTFRGPNETHLDSLVGQALFGDGAAAIIVGSDPTPAEKPLFQLVSAAQTLAPDSCGAIDGHLREVGLTFHLLKDVPSIVSNNIEKCLSEAFNPLGISDWNSIFWIAHPGGPAILDQVEDKLGLKPEKLRATRHVLSEYGNMSSACVLFILDEMRKASSNDGLGTTGEGLEWGVLFGFGPGLTIETVVLHSVPA |  |  |  | 1 nM

From article PMC7018950, “A conserved strategy of chalcone isomerase-like protein to rectify promiscuous chalcone synthase specificity” (Nature Communications, 2020)
